Test in all cases: co-IP; anti-Flag M2 affinity gel on extracts of human HEK 293 cells transfected with mouse 3xFlag Cyclin A2 alleles; endogenous partners detected by Western blot; densitometry (ImageQuantTL) normalised to immunoprecipitated Cyclin A2, percent of WT; repeated 3 times
What all share (settings): partners not purified
In general terms: Immunoblotting shows a protein as a band on a membrane.

Assay [1] concerns the target T1, Cyclin A2 L204A, C-terminally fused to 3 Flag tags (mouse, UniProt P51943 1-422, L204A).
T1 construct: Cyclin A2, mouse; cDNA obtained from NIH3T3 cells by RT-PCR; source: NIH3T3 or HEK 293 cells, transfected, in cell extracts; not shown: 3xFlag, C-terminal, kept

Assay [2] addresses T2, Cyclin A2 M200A, C-terminally fused to 3 Flag tags (mouse, UniProt P51943 1-422, M200A).
T2 construct: Cyclin A2, mouse; cDNA obtained from NIH3T3 cells by RT-PCR; source: NIH3T3 or HEK 293 cells, transfected, in cell extracts; not shown: 3xFlag, C-terminal, kept

Assay [3] deals with T3, Cyclin A2 WT, C-terminally fused to 3 Flag tags (mouse, UniProt P51943 1-422).
T3 construct: Cyclin A2, mouse; cDNA obtained from NIH3T3 cells by RT-PCR; Same construct transfected into mouse NIH3T3 (assay a1) and human HEK 293 (assay a2); also called WT Cyclin A2 allele; Flag tagged WT Cyclin A2; source: NIH3T3 or HEK 293 cells, transfected, in cell extracts; not shown: 3xFlag, C-terminal, kept

Assay [4] concerns the target T4, Cyclin A2 D171A, C-terminally fused to 3 Flag tags (mouse, UniProt P51943 1-422, D171A).
T4 construct: Cyclin A2, mouse; cDNA obtained from NIH3T3 cells by RT-PCR; source: NIH3T3 or HEK 293 cells, transfected, in cell extracts; not shown: 3xFlag, C-terminal, kept

The results in this text go back to PMC3145769, “Cyclin A2 Mutagenesis Analysis: A New Insight into CDK Activation and Cellular Localization Requirements” (PLoS ONE, 2011).

T2 sequence (P51943 whole entry M200A, the tested form may be a part): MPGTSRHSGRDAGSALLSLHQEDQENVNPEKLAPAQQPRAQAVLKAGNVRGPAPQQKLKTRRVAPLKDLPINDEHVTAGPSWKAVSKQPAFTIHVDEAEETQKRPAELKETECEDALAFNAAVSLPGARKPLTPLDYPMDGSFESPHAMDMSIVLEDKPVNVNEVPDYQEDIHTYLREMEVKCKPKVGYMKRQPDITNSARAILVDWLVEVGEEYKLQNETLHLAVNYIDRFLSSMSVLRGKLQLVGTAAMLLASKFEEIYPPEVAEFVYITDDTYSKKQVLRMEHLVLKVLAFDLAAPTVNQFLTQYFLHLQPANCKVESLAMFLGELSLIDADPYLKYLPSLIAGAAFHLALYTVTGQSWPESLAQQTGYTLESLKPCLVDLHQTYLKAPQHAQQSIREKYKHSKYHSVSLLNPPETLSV
T4 sequence (P51943 whole entry D171A, the tested form may be a part): as the sequence (P51943 whole entry M200A, the tested form may be a part) above, with D171A, A200M counted along it
T1 sequence (P51943 whole entry L204A, the tested form may be a part): as the sequence (P51943 whole entry M200A, the tested form may be a part) above, with A200M, L204A counted along it
T3 sequence (P51943 whole entry, the tested form may be a part): as the sequence (P51943 whole entry M200A, the tested form may be a part) above, with A200M counted along it

B1: p107 (endogenous, HEK 293) (natural protein, human (endogenous in HEK 293), UniProt P28749 1-1068, looked up)
chain: MFEDKPHAEGAAVVAAAGEALQALCQELNLDEGSAAEALDDFTAIRGNYSLEGEVTHWLACSLYVACRKSIIPTVGKGIMEGNCVSLTRILRSAKLSLIQFFSKMKKWMDMSNLPQEFRERIERLERNFEVSTVIFKKYEPIFLDIFQNPYEEPPKLPRSRKQRRIPCSVKDLFNFCWTLFVYTKGNFRMIGDDLVNSYHLLLCCLDLIFANAIMCPNRQDLLNPSFKGLPSDFHTADFTASEEPPCIIAVLCELHDGLLVEAKGIKEHYFKPYISKLFDRKILKGECLLDLSSFTDNSKAVNKEYEEYVLTVGDFDERIFLGADAEEEIGTPRKFTRDTPLGKLTAQANVEYNLQQHFEKKRSFAPSTPLTGRRYLREKEAVITPVASATQSVSRLQSIVAGLKNAPSDQLINIFESCVRNPVENIMKILKGIGETFCQHYTQSTDEQPGSHIDFAVNRLKLAEILYYKILETVMVQETRRLHGMDMSVLLEQDIFHRSLMACCLEIVLFAYSSPRTFPWIIEVLNLQPFYFYKVIEVVIRSEEGLSRDMVKHLNSIEEQILESLAWSHDSALWEALQVSANKVPTCEEVIFPNNFETGNGGNVQGHLPLMPMSPLMHPRVKEVRTDSGSLRRDMQPLSPISVHERYSSPTAGSAKRRLFGEDPPKEMLMDKIITEGTKLKIAPSSSITAENVSILPGQTLLTMATAPVTGTTGHKVTIPLHGVANDAGEITLIPLSMNTNQESKVKSPVSLTAHSLIGASPKQTNLTKAQEVHSTGINRPKRTGSLALFYRKVYHLASVRLRDLCLKLDVSNELRRKIWTCFEFTLVHCPDLMKDRHLDQLLLCAFYIMAKVTKEERTFQEIMKSYRNQPQANSHVYRSVLLKSIPREVVAYNKNINDDFEMIDCDLEDATKTPDCSSGPVKEERGDLIKFYNTIYVGRVKSFALKYDLANQDHMMDAPPLSPFPHIKQQPGSPRRISQQHSIYISPHKNGSGLTPRSALLYKFNGSPSKSLKDINNMIRQGEQRTKKRVIAIDSDAESPAKRVCQENDDVLLKRLQDVVSERANH
notes: p107, endogenous protein of human HEK 293 cells, detected by Western blot; source: endogenous, HEK 293 cell extract
For B1, the “percent co-precipitated relative to WT” value in assay [1] came to 5.3%; in assay [2], 57.4%; in assay [3], 100%; in assay [4], 95%.
